Source: US20030228654A1, “Method for producing antimicrobial protein and fusion protein” (KABUSHIKI KAISHA TOYOTA CHUO KENKYUSHO, priority 2000, published 2003)

Tested on: Ceratocystis fimbriata
Assay: Assay of antimicrobial activity: growth inhibition of Ceratocystis fimbriata spore suspension in 96-well microplate, absorbance at 415 nm
Type: cell-based
Conditions: Factor Xa-cleaved, concentrated protein solution 30 μl per well; MES buffer pH 6; 26° C.; absorbance 415 nm, 48 hours vs 30 minutes
Experimental: As shown in SEQ ID No: 1, 2 or 4, the fusion proteins of Examples 1 and 2 and Comparative Example 2 thus dialyzed retained the recognition sequence of a protease Factor Xa in between thionin and the partner protein. Then, the fusion protein was subjected to cleavage with Factor Xa of 30 μg per 1 mg of each fusion protein described above at 30° C. overnight.
The protein solution recovered by the cleavage procedures was concentrated to 30 μl using Microcon-3 (MWCO: 3000) as a concentration unit with a filtration membrane. Such great number of concentrated sample solutions were divided at 30 μl each in the individual wells of a 96-well microplate, followed by addition of 10 μl of 200 mM MES [2-(N-morpholino)ethanesulfonic acid] buffer at pH 6 and 60 μL of a spore suspension of Ceratocystis fimbriata (100,000 spores per 1 ml-80% potato dextrose broth). Then, the resulting mixtures were cultured at 26° C. […]
Then, the absorbance 30 minutes and 48 hours later was measured at 415 nm with a microplate reader of Model 3550. The growth inhibition was determined by the following formula (1). Herein, A represents the value obtained by subtracting the absorbance measured 30 minutes later from that measured 48 hours later in each concentrated sample solution, and B represents the same value in a solution not containing the sample. […]

B1: Example 2: Fusion protein of barley thionin and PDI from Fumicola insolens (SEQ ID No: 2); refolded, cleaved with Factor Xa (protein)
chain: EKHMIEGRMKSCCRSTLGRNCYNLCRVRGAQKLCAGVCRCKLTSSGKCPTGFPKMIEGRTLALVSNSDEPDTVKYCNLGCRASMCDYMVNAAADDEEMKLYLENCGDACVNFCNGDAGLTSLTA
modifications: Hordeum vulgare
Growth inhibition (%): 99.1%
